Laboratory results published in patent US12679878B2, “CRF2 receptor agonists and their use in therapy” (SANOFI, priority 2020, dated 2026).
Starred links: 1 amine or outer side, 2 acyl side, 3 side chain; linkers in the order of their positions; H or OH if unused. Non-standard residues stand in square brackets, D forms with d. Groups on a side chain read outwards from the residue. No end group written: not given here. *: point of attachment. C18 diacid = O=C(O)CCCCCCCCCCCCCCCCC(=O)*; γGlu = O=C(O)[C@H](CCC(=O)[*:2])N[*:1]; Palmitoyl = CCCCCCCCCCCCCCCC(=O)*; AEEA = NCCOCCOCC(=O)O; Aib = CC(C)(N)C(=O)O

Target: human corticotropin-releasing factor 2α (CRF2 α receptor) (human), Q13324
Assay: cell-based or functional assay

Sequence of human corticotropin-releasing factor 2α (CRF2 α receptor) (human), Q13324 (Q13324 20-411): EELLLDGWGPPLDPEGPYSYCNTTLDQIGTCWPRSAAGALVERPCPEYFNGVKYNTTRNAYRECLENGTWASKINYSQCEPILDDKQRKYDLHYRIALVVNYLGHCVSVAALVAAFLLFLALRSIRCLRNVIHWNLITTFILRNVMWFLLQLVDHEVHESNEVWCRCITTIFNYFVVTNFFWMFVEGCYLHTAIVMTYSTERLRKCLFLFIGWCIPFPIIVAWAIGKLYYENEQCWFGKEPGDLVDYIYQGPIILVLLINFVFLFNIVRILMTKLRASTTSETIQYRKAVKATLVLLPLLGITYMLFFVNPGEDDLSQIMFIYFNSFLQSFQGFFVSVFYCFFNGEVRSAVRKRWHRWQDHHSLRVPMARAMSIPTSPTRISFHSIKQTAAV

| Binder | EC50 [nM], 0% HSA [nM] | EC50 [nM], 0.1% HSA [nM] |
| --- | --- | --- |
| Ac-IVLSLD[dV]PIGLK([AEEA-AEEA-γGlu-C18 diacid])QILLEQERQK[Aib]QREQAEKNEQILEQV-NH2 (SMILES CC[C@H](C)[C@H](NC(C)=O)C(=O)N[C@H](C(=O)N[C@@H](CC(C)C)C(=O)N[C@@H](CO)C(=O)N[C@@H](CC(C)C)C(=O)N[C@@H](CC(=O)O)C(=O)N[C@@H](C(=O)N1CCC[C@H]1C(=O)N[C@H](C(=O)NCC(=O)N[C@@H](CC(C)C)C(=O)N[C@@H](CCCCNC(=O)COCCOCCNC(=O)COCCOCCNC(=O)CC[C@H](NC(=O)CCCCCCCCCCCCCCCCC(=O)O)C(=O)O)C(=O)N[C@@H](CCC(N)=O)C(=O)N[C@H](C(=O)N[C@@H](CC(C)C)C(=O)N[C@@H](CC(C)C)C(=O)N[C@@H](CCC(=O)O)C(=O)N[C@@H](CCC(N)=O)C(=O)N[C@@H](CCC(=O)O)C(=O)N[C@@H](CCCNC(=N)N)C(=O)N[C@@H](CCC(N)=O)C(=O)N[C@@H](CCCCN)C(=O)NC(C)(C)C(=O)N[C@@H](CCC(N)=O)C(=O)N[C@@H](CCCNC(=N)N)C(=O)N[C@@H](CCC(=O)O)C(=O)N[C@@H](CCC(N)=O)C(=O)N[C@@H](C)C(=O)N[C@@H](CCC(=O)O)C(=O)N[C@@H](CCCCN)C(=O)N[C@@H](CC(N)=O)C(=O)N[C@@H](CCC(=O)O)C(=O)N[C@@H](CCC(N)=O)C(=O)N[C@H](C(=O)N[C@@H](CC(C)C)C(=O)N[C@@H](CCC(=O)O)C(=O)N[C@@H](CCC(N)=O)C(=O)N[C@H](C(N)=O)C(C)C)[C@@H](C)CC)[C@@H](C)CC)[C@@H](C)CC)C(C)C)C(C)C) [SEQ ID NO: 167] | 3.95 | 74.4 |
| Ac-IVLSLD[dV]PIKLK([AEEA-AEEA-γGlu-C18 diacid])QILLEQARQK[Aib]QREQAEKNEQILEQV-NH2 (SMILES CC[C@H](C)[C@H](NC(C)=O)C(=O)N[C@H](C(=O)N[C@@H](CC(C)C)C(=O)N[C@@H](CO)C(=O)N[C@@H](CC(C)C)C(=O)N[C@@H](CC(=O)O)C(=O)N[C@@H](C(=O)N1CCC[C@H]1C(=O)N[C@H](C(=O)N[C@@H](CCCCN)C(=O)N[C@@H](CC(C)C)C(=O)N[C@@H](CCCCNC(=O)COCCOCCNC(=O)COCCOCCNC(=O)CC[C@H](NC(=O)CCCCCCCCCCCCCCCCC(=O)O)C(=O)O)C(=O)N[C@@H](CCC(N)=O)C(=O)N[C@H](C(=O)N[C@@H](CC(C)C)C(=O)N[C@@H](CC(C)C)C(=O)N[C@@H](CCC(=O)O)C(=O)N[C@@H](CCC(N)=O)C(=O)N[C@@H](C)C(=O)N[C@@H](CCCNC(=N)N)C(=O)N[C@@H](CCC(N)=O)C(=O)N[C@@H](CCCCN)C(=O)NC(C)(C)C(=O)N[C@@H](CCC(N)=O)C(=O)N[C@@H](CCCNC(=N)N)C(=O)N[C@@H](CCC(=O)O)C(=O)N[C@@H](CCC(N)=O)C(=O)N[C@@H](C)C(=O)N[C@@H](CCC(=O)O)C(=O)N[C@@H](CCCCN)C(=O)N[C@@H](CC(N)=O)C(=O)N[C@@H](CCC(=O)O)C(=O)N[C@@H](CCC(N)=O)C(=O)N[C@H](C(=O)N[C@@H](CC(C)C)C(=O)N[C@@H](CCC(=O)O)C(=O)N[C@@H](CCC(N)=O)C(=O)N[C@H](C(N)=O)C(C)C)[C@@H](C)CC)[C@@H](C)CC)[C@@H](C)CC)C(C)C)C(C)C) [SEQ ID NO: 165] | 0.28 | 5.06 |
| IVLSLD[dV]PTKLK([γGlu-Palmitoyl])QKLLKQERQR[Aib]EREQAEKNKRILERV-NH2 (N-terminus assumed; SMILES CCCCCCCCCCCCCCCC(=O)N[C@@H](CCC(=O)NCCCC[C@H](NC(=O)[C@H](CC(C)C)NC(=O)[C@H](CCCCN)NC(=O)[C@@H](NC(=O)[C@@H]1CCCN1C(=O)[C@H](NC(=O)[C@H](CC(=O)O)NC(=O)[C@H](CC(C)C)NC(=O)[C@H](CO)NC(=O)[C@H](CC(C)C)NC(=O)[C@@H](NC(=O)[C@@H](N)[C@@H](C)CC)C(C)C)C(C)C)[C@@H](C)O)C(=O)N[C@@H](CCC(N)=O)C(=O)N[C@@H](CCCCN)C(=O)N[C@@H](CC(C)C)C(=O)N[C@@H](CC(C)C)C(=O)N[C@@H](CCCCN)C(=O)N[C@@H](CCC(N)=O)C(=O)N[C@@H](CCC(=O)O)C(=O)N[C@@H](CCCNC(=N)N)C(=O)N[C@@H](CCC(N)=O)C(=O)N[C@@H](CCCNC(=N)N)C(=O)NC(C)(C)C(=O)N[C@@H](CCC(=O)O)C(=O)N[C@@H](CCCNC(=N)N)C(=O)N[C@@H](CCC(=O)O)C(=O)N[C@@H](CCC(N)=O)C(=O)N[C@@H](C)C(=O)N[C@@H](CCC(=O)O)C(=O)N[C@@H](CCCCN)C(=O)N[C@@H](CC(N)=O)C(=O)N[C@@H](CCCCN)C(=O)N[C@@H](CCCNC(=N)N)C(=O)N[C@H](C(=O)N[C@@H](CC(C)C)C(=O)N[C@@H](CCC(=O)O)C(=O)N[C@@H](CCCNC(=N)N)C(=O)N[C@H](C(N)=O)C(C)C)[C@@H](C)CC)C(=O)O) [SEQ ID NO: 19] | 0.01 |  |
| Ac-IVLSLD[dV]PIHLK([AEEA-AEEA-γGlu-C18 diacid])QILLEQERQK[Aib]QREQAEKNKQILEQV-NH2 [SEQ ID NO: 163] | 0.24 | 3.91 |
| Ac-IVLSLD[dV]PIGLK([AEEA-AEEA-γGlu-C18 diacid])QILLEQERQK[Aib]QREQAEKNKQILEQV-NH2 (SMILES CC[C@H](C)[C@H](NC(C)=O)C(=O)N[C@H](C(=O)N[C@@H](CC(C)C)C(=O)N[C@@H](CO)C(=O)N[C@@H](CC(C)C)C(=O)N[C@@H](CC(=O)O)C(=O)N[C@@H](C(=O)N1CCC[C@H]1C(=O)N[C@H](C(=O)NCC(=O)N[C@@H](CC(C)C)C(=O)N[C@@H](CCCCNC(=O)COCCOCCNC(=O)COCCOCCNC(=O)CC[C@H](NC(=O)CCCCCCCCCCCCCCCCC(=O)O)C(=O)O)C(=O)N[C@@H](CCC(N)=O)C(=O)N[C@H](C(=O)N[C@@H](CC(C)C)C(=O)N[C@@H](CC(C)C)C(=O)N[C@@H](CCC(=O)O)C(=O)N[C@@H](CCC(N)=O)C(=O)N[C@@H](CCC(=O)O)C(=O)N[C@@H](CCCNC(=N)N)C(=O)N[C@@H](CCC(N)=O)C(=O)N[C@@H](CCCCN)C(=O)NC(C)(C)C(=O)N[C@@H](CCC(N)=O)C(=O)N[C@@H](CCCNC(=N)N)C(=O)N[C@@H](CCC(=O)O)C(=O)N[C@@H](CCC(N)=O)C(=O)N[C@@H](C)C(=O)N[C@@H](CCC(=O)O)C(=O)N[C@@H](CCCCN)C(=O)N[C@@H](CC(N)=O)C(=O)N[C@@H](CCCCN)C(=O)N[C@@H](CCC(N)=O)C(=O)N[C@H](C(=O)N[C@@H](CC(C)C)C(=O)N[C@@H](CCC(=O)O)C(=O)N[C@@H](CCC(N)=O)C(=O)N[C@H](C(N)=O)C(C)C)[C@@H](C)CC)[C@@H](C)CC)[C@@H](C)CC)C(C)C)C(C)C) [SEQ ID NO: 164] | 0.69 | 10.1 |
| Ac-IVLSLD[dV]PIELK([AEEA-AEEA-γGlu-C18 diacid])QILLEQERQK[Aib]QREQAEKNKQILEQV-NH2 (SMILES CC[C@H](C)[C@H](NC(C)=O)C(=O)N[C@H](C(=O)N[C@@H](CC(C)C)C(=O)N[C@@H](CO)C(=O)N[C@@H](CC(C)C)C(=O)N[C@@H](CC(=O)O)C(=O)N[C@@H](C(=O)N1CCC[C@H]1C(=O)N[C@H](C(=O)N[C@@H](CCC(=O)O)C(=O)N[C@@H](CC(C)C)C(=O)N[C@@H](CCCCNC(=O)COCCOCCNC(=O)COCCOCCNC(=O)CC[C@H](NC(=O)CCCCCCCCCCCCCCCCC(=O)O)C(=O)O)C(=O)N[C@@H](CCC(N)=O)C(=O)N[C@H](C(=O)N[C@@H](CC(C)C)C(=O)N[C@@H](CC(C)C)C(=O)N[C@@H](CCC(=O)O)C(=O)N[C@@H](CCC(N)=O)C(=O)N[C@@H](CCC(=O)O)C(=O)N[C@@H](CCCNC(=N)N)C(=O)N[C@@H](CCC(N)=O)C(=O)N[C@@H](CCCCN)C(=O)NC(C)(C)C(=O)N[C@@H](CCC(N)=O)C(=O)N[C@@H](CCCNC(=N)N)C(=O)N[C@@H](CCC(=O)O)C(=O)N[C@@H](CCC(N)=O)C(=O)N[C@@H](C)C(=O)N[C@@H](CCC(=O)O)C(=O)N[C@@H](CCCCN)C(=O)N[C@@H](CC(N)=O)C(=O)N[C@@H](CCCCN)C(=O)N[C@@H](CCC(N)=O)C(=O)N[C@H](C(=O)N[C@@H](CC(C)C)C(=O)N[C@@H](CCC(=O)O)C(=O)N[C@@H](CCC(N)=O)C(=O)N[C@H](C(N)=O)C(C)C)[C@@H](C)CC)[C@@H](C)CC)[C@@H](C)CC)C(C)C)C(C)C) [SEQ ID NO: 162] | 2 | 30.5 |
| Ac-IVLSLD[dV]PIKLK([AEEA-AEEA-γGlu-C18 diacid])QILLEQERQK[Aib]QREQAEKNEQILEQV-NH2 (SMILES CC[C@H](C)[C@H](NC(C)=O)C(=O)N[C@H](C(=O)N[C@@H](CC(C)C)C(=O)N[C@@H](CO)C(=O)N[C@@H](CC(C)C)C(=O)N[C@@H](CC(=O)O)C(=O)N[C@@H](C(=O)N1CCC[C@H]1C(=O)N[C@H](C(=O)N[C@@H](CCCCN)C(=O)N[C@@H](CC(C)C)C(=O)N[C@@H](CCCCNC(=O)COCCOCCNC(=O)COCCOCCNC(=O)CC[C@H](NC(=O)CCCCCCCCCCCCCCCCC(=O)O)C(=O)O)C(=O)N[C@@H](CCC(N)=O)C(=O)N[C@H](C(=O)N[C@@H](CC(C)C)C(=O)N[C@@H](CC(C)C)C(=O)N[C@@H](CCC(=O)O)C(=O)N[C@@H](CCC(N)=O)C(=O)N[C@@H](CCC(=O)O)C(=O)N[C@@H](CCCNC(=N)N)C(=O)N[C@@H](CCC(N)=O)C(=O)N[C@@H](CCCCN)C(=O)NC(C)(C)C(=O)N[C@@H](CCC(N)=O)C(=O)N[C@@H](CCCNC(=N)N)C(=O)N[C@@H](CCC(=O)O)C(=O)N[C@@H](CCC(N)=O)C(=O)N[C@@H](C)C(=O)N[C@@H](CCC(=O)O)C(=O)N[C@@H](CCCCN)C(=O)N[C@@H](CC(N)=O)C(=O)N[C@@H](CCC(=O)O)C(=O)N[C@@H](CCC(N)=O)C(=O)N[C@H](C(=O)N[C@@H](CC(C)C)C(=O)N[C@@H](CCC(=O)O)C(=O)N[C@@H](CCC(N)=O)C(=O)N[C@H](C(N)=O)C(C)C)[C@@H](C)CC)[C@@H](C)CC)[C@@H](C)CC)C(C)C)C(C)C) [SEQ ID NO: 166] | 0.9 | 14 |
